Where only a bound is given, the exact number is not on record here.

Assay [1] addresses T1, human CD123 expressed on cells (human, UniProt P26951 19-378). Description: cell-based or functional assay.
In assay [2] the target is T1, human CD123 expressed on cells. The assay is described as follows: cell-based or functional assay. The source holds these as a separate data set.
Assay [3] has as its target cynomolgus TCR/CD3 expressed on cells (cynomolgus). Description: cell-based or functional assay.
For assay [4] the target is unchanged. Description: cell-based or functional assay. The source holds these as a separate data set.
For assay [5] the target is unchanged. Description: cell-based or functional assay. This is another data set of the same source.
Assay [6] deals with T1, human CD123 expressed on cells. Description: cell-based or functional assay. The source holds these as a separate data set.
The target in assay [7] is T2, cynomolgus CD123 expressed on HEK Flp-In cells (cynomolgus).
T2 chain: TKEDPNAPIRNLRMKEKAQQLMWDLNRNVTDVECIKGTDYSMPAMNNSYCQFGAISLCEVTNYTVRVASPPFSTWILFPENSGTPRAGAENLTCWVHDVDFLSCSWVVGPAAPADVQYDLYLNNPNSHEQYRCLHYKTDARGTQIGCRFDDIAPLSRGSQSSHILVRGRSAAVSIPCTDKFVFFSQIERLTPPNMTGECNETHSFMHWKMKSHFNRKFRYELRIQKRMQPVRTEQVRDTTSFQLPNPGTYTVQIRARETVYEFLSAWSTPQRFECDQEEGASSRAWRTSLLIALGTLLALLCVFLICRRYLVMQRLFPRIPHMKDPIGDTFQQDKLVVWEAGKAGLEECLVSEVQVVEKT
The assay is described as follows: cell-based or functional assay.

Assay [8] addresses T1, human CD123 expressed on cells. Description: cell-based or functional assay. This is another data set of the same source.
Assay [9] has the same target. The assay is described as follows: cell-based or functional assay. This is another data set of the same source.
Assay [10] shares this target. Description: cell-based or functional assay. The source holds these as a separate data set.
Assay [11] has the same target. Description: cell-based or functional assay. This is another data set of the same source.
Assay [12] has the same target. The assay is described as follows: cell-based or functional assay. This is another data set of the same source.
Assay [13] shares this target. Description: cell-based or functional assay. The source holds these as a separate data set.
Assay [14] concerns the target T3, cynomolgus TCR/CD3 expressed on cells (cynomolgus).
T3 construct: whole, on cells; Native complex with CD3 chains; the cell type is named under assay or readout; also called cyno TCR/CD3; CD3/TCR expressed on HSC-F
The assay is described as follows: flow cytometry competition, HSC-F cells, competitor T017000099 (500 nM). For orientation: A flow cytometer gives signals particle by particle.

In assay [15] the target is T1, human CD123 expressed on cells. The assay is described as follows: flow cytometry competition, MOLM-13 cells, competitor A0110056A10-Alexa647 (0.4 nM).
Assay [16] shares this target. The assay is described as follows: flow cytometry competition, CHO Flp-In huCD123 cells, competitor A0110056A10-Alexa647 (0.9 nM).
Assay [17] addresses T2, cynomolgus CD123 expressed on HEK …. Description: flow cytometry competition, HEK Flp-In cyCD123 cells, competitor A0110056A10-Alexa647 (0.9 nM).
For assay [18], the target named is T1, human CD123 expressed on cells. The assay is described as follows: flow cytometry, KG1a cells.
For assay [19] the target is unchanged. Description: flow cytometry, MOLM-13 cells.
For assay [20], the target named is T4, recombinant human CD123 protein (R&D Systems, 301-R3/CF) (human, UniProt P26951 19-305).
T4 construct: Bought recombinant His-tagged extracellular domain of human CD123; also called recombinant CD123; in house biotinylated-CD123 recombinant protein; not shown: His tag of the bought protein
T4 sequence: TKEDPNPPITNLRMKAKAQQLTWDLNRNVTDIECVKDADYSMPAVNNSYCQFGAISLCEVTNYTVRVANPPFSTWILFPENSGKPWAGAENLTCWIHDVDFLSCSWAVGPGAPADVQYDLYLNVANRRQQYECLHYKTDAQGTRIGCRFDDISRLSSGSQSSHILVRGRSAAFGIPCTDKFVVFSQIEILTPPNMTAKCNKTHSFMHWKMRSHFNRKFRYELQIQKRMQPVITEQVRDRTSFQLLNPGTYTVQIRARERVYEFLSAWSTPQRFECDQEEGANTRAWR
Description: SPR (ProteOn XPR36), CD123 immobilized.

The target in assay [21] is T1, human CD123 expressed on cells. The assay is described as follows: flow cytometry, CHO Flp-In huCD123 transfected cells.
Assay [22] addresses T2, cynomolgus CD123 expressed on HEK …. Description: flow cytometry, HEK Flp-In cyCD123 transfected cells.
Assay [23] concerns the target T1, human CD123 expressed on cells. Description: flow cytometry competition, MOLM-13 cells, competitor APC-labelled antibody 7G3.
Assay [24] shares this target. The assay is described as follows: flow cytometry competition, MOLM-13 cells, competitor A0110056A10-Alexa647 (0.7 nM).
For assay [25] the target is unchanged. The assay is described as follows: flow cytometry, Alexa647-labelled Nanobody, MOLM-13 cells.
The target is the same in assay [26]. The assay is described as above. The source holds these as a separate data set.
The target is the same in assay [27]. The assay is described as follows: flow cytometry, Alexa647-labelled Nanobody, CHO Flp-In huCD123 transfected cells.
In assay [28] the target is T2, cynomolgus CD123 expressed on HEK …. Description: flow cytometry, Alexa647-labelled Nanobody, HEK Flp-In cyCD123 transfected cells.
Assay [29] deals with T1, human CD123 expressed on cells. The assay is described as follows: flow cytometry, Alexa647-labelled Nanobody, CHO Flp-In human CD123 cells.
Assay [30] shares this target. The assay is described as above. The source holds these as a separate data set.
The target in assay [31] is T2, cynomolgus CD123 expressed on HEK …. The assay is described as follows: flow cytometry, Alexa647-labelled Nanobody, HEK Flp-In cynomolgus CD123 cells.
Assay [32] has as its target T4, recombinant human CD123 protein (R&D …). The assay is described as follows: competition ELISA, coated antibody 7G3 as competitor, 4 nM biotinylated recombinant CD123. A general note: ELISA stands for enzyme-linked immunosorbent assay.
In assay [33] the target is T1, human CD123 expressed on cells. The assay is described as follows: flow cytometry competition, CHO Flp-In human CD123 cells, competitor APC-labelled antibody 7G3.
Assay [34] shares this target. Description: flow cytometry competition, CHO Flp-In human CD123 cells, competitor A0110056A10-Alexa647 (0.5 nM).

B1: T017000139 (bispecific antibody)
chain: DVQLVESGGGLVQPGGSLRLSCVASGDVHKINFLGWYRQAPGKEREKVAHISIGDQTDYADSAKGRFTISRDESKNMVYLQMNSLKPEDTAVYFCRAFSRIYPYDYWGQGTLVTVSSGGGGSGGGGSGGGGSGGGGSGGGGSGGGGSGGGGSEVQLVESGGGLVQAGGPLRLSCAASGRTFSSYVMGWFRQAPGKEREFVAAIYWSNGKTQYTDSVKGRFTISGDNAKNTVYLQMNSLNPEDTAVYYCVADKDETGFRTLPIAYDYWGQGTLVTVSSGGGGSGGGGSGGGGSGGGGSGGGGSGGGGSGGGGSEVQLVESGGGLVQAGGSLRLSCAASGITSKINDMGWYRQTPGNYREWVASITATGTTNYRDSVKGRFTISRDNAKSTVYLQMNSLKPEDTTVYYCNTFPPISNFWGQGTLVTVSSA
notes: Multispecific Nanobody polypeptide expressed in Pichia; also called T013700139
Consider B1, for which, in assay [1], the “% lysis, redirected human T cell mediated killing of MOLM-13 cells, flow cytometry, E:T 10:1” value was 29% and the “EC50 (M), redirected human T cell mediated killing of MOLM-13 cells, flow cytometry, E:T 10:1” value stood at 2e-11 M. In [2], the “% lysis, redirected human T cell mediated killing of KG1a cells, flow cytometry, E:T 10:1” value amounted to 27% and the “EC50 (M), redirected human T cell mediated killing of KG1a cells, flow cytometry, E:T 10:1” value is 1.1e-10 M. Besides, in assay [3], the “% lysis, redirected cyno T cell mediated killing of MOLM-13 cells, flow cytometry, E:T 10:1” value amounted to 55% and the “EC50 (M), redirected cyno T cell mediated killing of MOLM-13 cells, flow cytometry, E:T 10:1” value amounted to 1.1e-11 M. For the same molecule, in assay [4], the “% lysis, redirected cyno T cell mediated killing of KG1a cells, flow cytometry” value was 42% and the “EC50 (M), redirected cyno T cell mediated killing of KG1a cells, flow cytometry” value was 2.6e-11 M. Moreover, the “EC50 (M) of CD25 upregulation on cynomolgus T cells during redirected killing of MOLM-13 cells, 72 h” value in [5] worked out at 6e-11 M. The “IC50 (M), redirected human T cell mediated killing of human CD123 transfected CHO Flp-In cells, xCELLigence, E:T 15:1, 50 h” value in assay [6] was 2.4e-10 M. In assay [7], the “IC50 (M), redirected cynomolgus T cell mediated killing of cynomolgus CD123 transfected HEK Flp-In cells, xCELLigence, E:T 15:1, 80 h” value was 1.1e-11 M. In assay [8], the “EC50 (M), IFN-γ secretion by cynomolgus T cells during killing of CD123 transfected adherent target cells” value was 2.3e-09 M and the “EC50 (M), IFN-γ secretion by human T cells during killing of CD123 transfected adherent target cells” value was 1e-09 M. Further, the “EC50 (M), human IL-6 secretion during human T cell mediated killing of CD123 transfected adherent target cells” value in assay [9] stood at 4.8e-10 M. For the same molecule, in [10], the “EC50 (M), redirected cynomolgus T cell mediated killing of CD123 positive KG1a cells, flow cytometry, E:T 10:1” value was determined as 1.7e-11 M and the “EC50 (M), redirected human T cell mediated killing of CD123 positive KG1a cells, flow cytometry, E:T 10:1” value is 8.1e-11 M. Further, in assay [11], the “EC50 (M), redirected cynomolgus T cell mediated killing of CD123 positive MOLM-13 cells, flow cytometry, Experiment 1” value was found to be 6e-11 M; the “EC50 (M), redirected cynomolgus T cell mediated killing of CD123 positive MOLM-13 cells, flow cytometry, Experiment 2” value was 3.1e-11 M; the “EC50 (M), redirected human T cell mediated killing of CD123 positive MOLM-13 cells, flow cytometry, Experiment 2” value worked out at 3e-11 M. Besides, in [12], the “EC50 (M), human IFN-γ secretion during human T cell mediated killing of KG1a cells” value turned out to be 3.2e-11 M and the “EC50 (M), human IFN-γ secretion during human T cell mediated killing of MOLM-13 cells” value came to 3.4e-10 M. Also, the “EC50 (M), human IL-6 secretion during human T cell mediated killing of MOLM-13 cells” value in assay [13] was 2.3e-11 M. The same molecule showed an IC50 in assay [14] of 640 nM. This molecule also returned an IC50 in [15] of 3.7 nM. The IC50 in assay [16] is 3.3 nM. Besides, the IC50 in [17] came out at 11 nM.

B2: A0110055F03 (VHH)
VHH: EVQLVESGGGLVQAGGPLRLSCAASGRTFSSYVMGWFRQAPGKEREFVAAIYWSNGKTQYTDSVKGRFTISGDNAKNTVYLQMNSLNPEDTAVYYCVADKDETGFRTLPIAYDYWGQGTQVTVSS
notes: Monovalent anti-CD123 Nanobody; also called A0110PMP055F03; A011005F03; not shown: C-terminal triple Flag, His6 tag
Consider B2, for which the EC50 in assay [18] was greater than 100 nM; in assay [19], greater than 100 nM; in [21], 5.94 nM; in assay [22], 2.53 nM. Moreover, the dissociation constant (Kd) in [20] came out at 160 nM. In [20], the koff came out at 0.0039 s⁻¹. In assay [20], the kon worked out at 25000 M⁻¹ s⁻¹. The figures for the IC50 in assay [23] and in [24] were 480 nM and greater than 100 nM, respectively.

B3: A0110056A10 (VHH)
VHH: EVQLVKSGGGLVQAGGSLRLSCAASGITSKINDMGWYRQTPGNYREWVASITATGTTNYRDSVKGRFTISRDNAKSTVYLQMNSLKPEDTTVYYCNTFPPISNFWGQGTLVTVSS
notes: Monovalent anti-CD123 Nanobody; also called A0110PMP056A10; A0110056A10-Alexa647; not shown: C-terminal triple Flag, His6 tag
B3: the EC50 in assay [18] came out at 0.5 nM; in assay [19], 0.63 nM; in assay [27], 0.974 nM; in [28], 2.48 nM. Also, in assay [20], the Kd worked out at 1.5 nM. Also, the koff in [20] turned out to be 0.00079 s⁻¹. Besides, in assay [20], the kon is 530000 M⁻¹ s⁻¹. Further, the “EC50 (read off the curve)” value is roughly 0.7 nM in [25]; roughly 0.5 nM in assay [26]; roughly 3 nM in [29]; roughly 1 nM in assay [30]; roughly 3 nM in [31]. For the same molecule, the IC50 turned out to be 1.1 nM in [23]; 1.4 nM in [24]; 1.1 nM in assay [15]; 3.1 nM in assay [32]; 6.5 nM in [33]; 1.9 nM in assay [16]. In addition, the IC50 was found to be 7 nM in [17] and 6.7 nM in [34].

The term IC50 denotes the concentration that inhibits the measured activity by half. The term EC50 denotes the concentration that produces a half-maximal response. Lower therefore signals an effect from little substance. As a reminder, the Kd is a measure of binding affinity in units of concentration. The koff is the first-order rate constant of dissociation. Broadly, the kon is the rate constant with which the complex forms. What is called EC50 (read off the curve) is the concentration needed to bring the measured effect to its halfway point.

These data come from patent US20240199740A1 (Ablynx, published 2024).
